Results on 3 substances are retold here after US20030086940A1.

In assay [1] the target is porcine CD86 (porcine). The assay can be described thus: cell-based or functional assay.
The target of assay [2] is human CTLA4-human CD59 chimeric molecule with a human CD59 leader sequence and an (AS)3 linker (human). In words: flow cytometry, PAEC Control-hCCh (pig #51, high hCTLA4-hCD59); mean ± SE, n=4. A general note: Flow cytometry measures light scatter and fluorescence of single cells or particles in a stream.
Sequence of human CTLA4-human CD59 chimeric molecule with a human CD59 leader sequence and an (AS)3 linker (human) (chain, as listed by the source mutant limits assumed): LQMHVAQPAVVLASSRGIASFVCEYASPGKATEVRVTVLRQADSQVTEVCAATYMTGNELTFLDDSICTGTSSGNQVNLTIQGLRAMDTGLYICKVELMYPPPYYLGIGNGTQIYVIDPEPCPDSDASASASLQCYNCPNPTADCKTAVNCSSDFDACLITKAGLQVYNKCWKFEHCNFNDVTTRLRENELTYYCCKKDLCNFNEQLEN
Assay [3] has the same target. In words: flow cytometry, PAEC Control-hCCm (pig #51, medium hCTLA4-hCD59); mean ± SE, n=4.
Assay [4] has the same target. In words: flow cytometry, PAEC HT 49-hCCm (medium hCTLA4-hCD59); mean ± SE, n=4.
Assay [5] shares this target. In words: flow cytometry, PAEC HT 48-hCCl (low hCTLA4-hCD59); mean ± SE, n=4.
Assay [6] concerns the target human CD28 (human) (UniProt P10747). In words: cell-based or functional assay.
Sequence of UniProt P10747 (P10747 19-220): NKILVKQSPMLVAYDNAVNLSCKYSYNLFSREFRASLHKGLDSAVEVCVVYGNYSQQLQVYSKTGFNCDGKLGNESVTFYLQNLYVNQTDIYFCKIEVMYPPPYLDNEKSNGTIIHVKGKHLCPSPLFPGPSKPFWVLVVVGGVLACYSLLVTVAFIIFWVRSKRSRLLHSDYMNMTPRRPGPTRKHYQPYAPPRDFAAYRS

In assay [1], “human CTLA4-human CD59 chimeric molecule with a human CD59 leader sequence and an (AS)3 linker” showed an IL-2 secreted from Jurkat cells co-cultured with PI-PLC treated hCTLA4-hCD59 PAEC of 570 pg/mL and an IL-2 secreted from Jurkat cells co-cultured with hCTLA4-hCD59 PAEC (fold decrease) of 5.

Turning to “mouse monoclonal antibody BNI3 (Immunotech), specific for hCTLA4”, the mean fluorescence intensity in assay [2] came to 112 MFI; in assay [3], 101 MFI; in assay [4], 30.9 MFI; in assay [5], 10.2 MFI.

Substance porcine CD86 (ligand) returned an IL-2 secreted from Jurkat cells co-cultured with vector control PAEC and PHA (ELISA) in assay [6] of 400 pg/mL.
